Measured values: patent US20150093802

Legend:
Assay in all cases: one_hybrid
[1] = system: OZ128 (CF877R) (synthetic); conditions: bacterial two-hybrid lacZ, SD 0.07
[2] = system: OZ134 (CF877R) (synthetic); conditions: bacterial two-hybrid lacZ, SD 0.19
[3] = system: OZ141 (CF877R) (synthetic); conditions: bacterial two-hybrid lacZ, SD 0.08
[4] = system: OZ124 (CF877R) (synthetic); conditions: bacterial two-hybrid lacZ, SD 0.20
[5] = system: OZ139 (CF877R) (synthetic); conditions: bacterial two-hybrid lacZ, SD 0.03
[6] = system: OZ135 (CF877R) (synthetic); conditions: bacterial two-hybrid lacZ, SD 0.07
[7] = system: OZ121 (CF877R) (synthetic); conditions: bacterial two-hybrid lacZ, SD 0.19
[8] = system: OZ120 (CF877R) (synthetic); conditions: bacterial two-hybrid lacZ, SD 0.01
[9] = system: OZ130 (CF877R) (synthetic); conditions: bacterial two-hybrid lacZ, SD 0.22
[10] = system: OZ136 (CF877R) (synthetic); conditions: bacterial two-hybrid lacZ, SD 0.06
[11] = system: OZ119 (CF877R) (synthetic); conditions: bacterial two-hybrid lacZ, SD 0.35
[12] = system: OZ140 (CF877R) (synthetic); conditions: bacterial two-hybrid lacZ, SD 0.48
[13] = system: OZ138 (CF877R) (synthetic); conditions: bacterial two-hybrid lacZ, SD 0.41
[14] = system: OZ126 (CF877R) (synthetic); conditions: bacterial two-hybrid lacZ, SD 0.28
[15] = system: OZ129 (CF877R) (synthetic); conditions: bacterial two-hybrid lacZ, SD 0.07
[16] = system: OZ122 (CF877R) (synthetic); conditions: bacterial two-hybrid lacZ, SD 0.59
[17] = system: OZ137 (CF877R) (synthetic); conditions: bacterial two-hybrid lacZ, SD 0.04
[18] = system: OZ125 (CF877R) (synthetic); conditions: bacterial two-hybrid lacZ, SD 0.85
[19] = system: OZ131 (CF877R) (synthetic); conditions: bacterial two-hybrid lacZ, SD 0.12
[20] = system: OZ133 (CF877R) (synthetic); conditions: bacterial two-hybrid lacZ, SD 0.05
[21] = system: OZ142 (CF877R) (synthetic); conditions: bacterial two-hybrid lacZ, SD 0.16
[22] = system: OZ123 (CF877R) (synthetic); conditions: bacterial two-hybrid lacZ, SD 0.63
[23] = system: OZ127 (CF877R) (synthetic); conditions: bacterial two-hybrid lacZ, SD 0.02
[24] = system: OZ118 (CF877L) (synthetic); conditions: bacterial two-hybrid lacZ, SD 0.08
[25] = system: OZ111 (CF877L) (synthetic); conditions: bacterial two-hybrid lacZ, SD 1.90; marked + in table
[26] = system: OZ108 (CF877L) (synthetic); conditions: bacterial two-hybrid lacZ, SD 0.51
[27] = system: OZ117 (CF877L) (synthetic); conditions: bacterial two-hybrid lacZ, SD 0.33
[28] = system: OZ115 (CF877L) (synthetic); conditions: bacterial two-hybrid lacZ, SD 0.12
[29] = system: OZ112 (CF877L) (synthetic); conditions: bacterial two-hybrid lacZ, SD 0.55
[30] = system: OZ113 (CF877L) (synthetic); conditions: bacterial two-hybrid lacZ, SD 0.20
[31] = system: OZ109 (CF877L) (synthetic); conditions: bacterial two-hybrid lacZ, SD 0.20
[32] = system: OZ116 (CF877L) (synthetic); conditions: bacterial two-hybrid lacZ, SD 0.38
[33] = system: OZ107 (CF877L) (synthetic); conditions: bacterial two-hybrid lacZ, SD 0.58
[34] = system: OZ110 (CF877L) (synthetic); conditions: bacterial two-hybrid lacZ, SD 0.15; marked + in table
[35] = system: OZ114 (CF877L) (synthetic); conditions: bacterial two-hybrid lacZ, SD 0.18

Sequence: GAGTGGTTA (double strand) [CF877R half-site]
- activity (fold activation) [1]: 2.12
- activity (fold activation) [2]: 3.71
- activity (fold activation) [3]: 2.87
- activity (fold activation) [4]: 4.41
- activity (fold activation) [5]: 2.74
- activity (fold activation) [6]: 2.25
- activity (fold activation) [7]: 2.91
- activity (fold activation) [8]: 2.53
- activity (fold activation) [9]: 2.47
- activity (fold activation) [10]: 2.16
- activity (fold activation) [11]: 2.78
- activity (fold activation) [12]: 2.99
- activity (fold activation) [13]: 2.52
- activity (fold activation) [14]: 2.57
- activity (fold activation) [15]: 2.55
- activity (fold activation) [16]: 4.72
- activity (fold activation) [17]: 2.26
- activity (fold activation) [18]: 4
- activity (fold activation) [19]: 2.08
- activity (fold activation) [20]: 3.24
- activity (fold activation) [21]: 2.73
- activity (fold activation) [22]: 5.03
- activity (fold activation) [23]: 1.6

Sequence: GTGGAATTA (double strand) [CF877L half-site]
- activity (fold activation) [24]: 3.55
- activity (fold activation) [25]: 2.2
- activity (fold activation) [26]: 2.31
- activity (fold activation) [27]: 3.87
- activity (fold activation) [28]: 2.71
- activity (fold activation) [29]: 2.52
- activity (fold activation) [30]: 1.61
- activity (fold activation) [31]: 2.83
- activity (fold activation) [32]: 2.53
- activity (fold activation) [33]: 1.92
- activity (fold activation) [34]: 1.61
- activity (fold activation) [35]: 2.95
